Positions of bridges follow the written chain, without caps; N, C: chain ends. No end group written: not given here.
Molecular target: T1, sNUCB1 (N-terminally truncated human NUCB1, deletion of residues 1-31) (Homo sapiens, UniProt Q02818 32-461)
T1 construct: Expressed in E. coli; also called Calnuc; Ca2+ free NUCB1
T1 sequence: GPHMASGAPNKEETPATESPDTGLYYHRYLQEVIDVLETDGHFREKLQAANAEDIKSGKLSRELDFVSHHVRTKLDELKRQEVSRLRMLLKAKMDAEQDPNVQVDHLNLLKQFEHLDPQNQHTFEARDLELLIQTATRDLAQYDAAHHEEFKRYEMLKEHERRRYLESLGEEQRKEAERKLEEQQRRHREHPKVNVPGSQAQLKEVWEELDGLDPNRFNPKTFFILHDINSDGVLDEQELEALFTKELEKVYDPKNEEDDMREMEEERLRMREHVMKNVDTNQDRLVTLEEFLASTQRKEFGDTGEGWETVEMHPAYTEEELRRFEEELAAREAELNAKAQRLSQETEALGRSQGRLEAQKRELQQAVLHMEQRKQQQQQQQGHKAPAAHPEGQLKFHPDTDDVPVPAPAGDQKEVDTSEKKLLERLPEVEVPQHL
Assay: inferred from TEM of Amylin fibrillization with Ca2+ free NUCB1 added 1:1 at t=0, 2, 7 and 15 min
Text: Aggregation of Amylin involves an initial lag phase, which is associated with the formation of a nucleus. This nucleation phase is followed by the growth phase where monomers/oligomers add on to the nucleus converting the protofibrillar species into mature fibrils (Merlini and Bellotti, N. Engl. J. Med. 349, 583-596, 2003). Inhibitors of amyloidogenesis, known to date, either prolong the lag phase or slow down the growth phase. […] In the second reaction, Amylin oligomerization was allowed to proceed for 2 min into the reaction after which equimolar amount of NUCB1 was added. […] In the third reaction, NUCB1 was added after the nucleation phase of Amylin aggregation was complete (t=7 min). […] In the fourth experiment, the fibrillization reaction was allowed to proceed to the growth phase and NUCB1 was added during the elongation phase (t=1 5 min). […] This summarizes and supports the observation that Ca2+ free NUCB1 can inhibit the aggregation of Amylin at any stage during the fibrillization reaction.

B1: Wild type human IAPP (Amylin) (peptide, UniProt P10997 34-70, looked up)
peptide: KCNTATCATQRLANFLVHSSNNFGAILSSTNVGSNTY-NH2
modifications: disulfide 2-7 (inferred)
notes: mature; Present in the assays as monomers, oligomers, protofibrils or mature fibrils, depending on the time of addition; also called hIAPP; Amylin peptide
Q: Does B1 bind?
A: binds

From patent publication US20110224143A1 (ROCKERFELLER UNIVERSITY, published 2011)
